# B1: ΔbnKCP1^1-80 (residues 1-80), in vitro translated (other)
# chain: MAGGGPTFSIELSAYGSDLPTDKASGDIPNEEGSGLSRVGSGIWSGRTVDYSSESSSSIGTPGDSEEEDEESEEDNDEEE
# modifications: labeled with [^35S]methionine
# notes: C-terminal truncation lacking the KID domain, translated in vitro from pET-28b; Vector-encoded residues are not described
# B2: BnSCL1 (Brassica napus SCARECROW-like protein 1), full-length, in vitro translated (other, not shown: small tags and cut ends)
# chain: MDEHAMRSMDWDSIMKELEVDDDSAPYQLQPSSFNLPVFPDIDSSDVYPGPNQITGYGFNSLDSVDNGGFDYIEDLIRVVDCIESDELHLAHVVLSQLNQRLQTSAGRPLQRAAFYFKEALGSLLTGTNRNQLFSWSDIVQKIRAIKEFSGISPIPLFSHFTANQAILDSLSSQSSSPFVHVVDFEIGFGGQYASLMREIAEKSANGGFLRVTAVVAEDCAVETRLVKENLTQFAAEMKIRFQIEFVLMKTFEILSFKAIRFVDGERTVVLISPAIFRRVIGIAEFVNNLGRVSPNVVVFVDSEGCTETAGSGSFRREFVSAFEFYTMVLESLDAAAPPGDLVKKIVETFLLRPKISAAVETAANRRSAGQMTWREMLCAAGMRPVQLSQFADFQAECLLEKAQVRGFHVAKRQGELVLCWHGRALVATSAWRF
# modifications: labeled with [^35S]methionine
# notes: also called wild type BnSCL1
# B3: ΔbnKCP1^1-160 (residues 1-160), in vitro translated (other)
# chain: MAGGGPTFSIELSAYGSDLPTDKASGDIPNEEGSGLSRVGSGIWSGRTVDYSSESSSSIGTPGDSEEEDEESEEDNDEEELGLASLRSLEDSLPSKGLSSHYKGKSKSFGNLGEIGSVKEVPKQENPLNKKRRLQIYNKLARKSFYSWQNPKSMPLLPVH
# modifications: labeled with [^35S]methionine
# notes: as for B1
# B4: ΔBnSCL1^1-145, in vitro translated (other, not shown: small tags and cut ends)
# chain: MDEHAMRSMDWDSIMKELEVDDDSAPYQLQPSSFNLPVFPDIDSSDVYPGPNQITGYGFNSLDSVDNGGFDYIEDLIRVVDCIESDELHLAHVVLSQLNQRLQTSAGRPLQRAAFYFKEALGSLLTGTNRNQLFSWSDIVQKIRA
# modifications: labeled with [^35S]methionine
# notes: C-terminal truncation lacking the VHIID motif
# B5: bnKCP1 (B. napus KID-containing protein 1), full-length, in vitro translated (other)
# chain: MAGGGPTFSIELSAYGSDLPTDKASGDIPNEEGSGLSRVGSGIWSGRTVDYSSESSSSIGTPGDSEEEDEESEEDNDEEELGLASLRSLEDSLPSKGLSSHYKGKSKSFGNLGEIGSVKEVPKQENPLNKKRRLQIYNKLARKSFYSWQNPKSMPLLPVHEDNDDEEGDDGDLSDEERGGDVLARRPSFKNRALKSMSCFALSDLQEEEEEEEDE
# modifications: labeled with [^35S]methionine
# notes: Produced by TNT-Quick coupled in vitro transcription/translation from pET-28b (HindIII/XhoI); also called wild type bnKCP1; pET-28b bnKCP1
# Assays:
# Assay in all cases: GST pulldown, [35S]Met-labelled in vitro translated protein
# [1] = molecular target: T1, GST-Gcn5 fusion protein (recombinant Arabidopsis HAT Gcn5 fused to glutathione S-transferase) (Arabidopsis, UniProt Q9AR19 1-568)
# T1 construct: Expressed in E. coli from pGEX-6P-2 (SalI/NotI); also called GCN5 (HAT); histone acetyltransferase (HAT); not shown: glutathione S-transferase (GST) encoded by vector pGEX-6P-2 (Amersham Pharmacia)
# T1 sequence (looked up): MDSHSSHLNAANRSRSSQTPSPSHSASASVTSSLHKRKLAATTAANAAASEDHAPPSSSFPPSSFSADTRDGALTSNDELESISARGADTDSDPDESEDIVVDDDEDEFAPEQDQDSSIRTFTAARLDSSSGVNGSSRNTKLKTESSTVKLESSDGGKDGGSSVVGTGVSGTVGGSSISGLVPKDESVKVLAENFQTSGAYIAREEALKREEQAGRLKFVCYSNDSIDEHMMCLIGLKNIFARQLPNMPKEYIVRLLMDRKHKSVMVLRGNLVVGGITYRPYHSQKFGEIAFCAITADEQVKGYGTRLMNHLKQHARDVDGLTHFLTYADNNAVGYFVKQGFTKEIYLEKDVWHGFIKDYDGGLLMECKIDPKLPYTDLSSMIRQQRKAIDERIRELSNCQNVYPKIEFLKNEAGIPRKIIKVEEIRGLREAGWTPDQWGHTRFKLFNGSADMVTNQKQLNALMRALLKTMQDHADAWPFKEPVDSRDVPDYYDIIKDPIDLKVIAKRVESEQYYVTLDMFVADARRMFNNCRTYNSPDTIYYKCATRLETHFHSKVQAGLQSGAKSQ
# [2] = molecular target: T2, GST-HDA19 fusion protein (recombinant Arabidopsis thaliana HDA19 fused to glutathione S-transferase) (Arabidopsis thaliana, UniProt O22446 1-501)
# T2 construct: Expressed in E. coli BL21-CodonPlus (DE3)-RP from pGEX-6P-2 (SalI/NotI) and purified under non-denaturing conditions; also called recombinant HDA19; not shown: glutathione S-transferase (GST) encoded by vector pGEX-6P-2 (Amersham Pharmacia)
# T2 sequence (looked up): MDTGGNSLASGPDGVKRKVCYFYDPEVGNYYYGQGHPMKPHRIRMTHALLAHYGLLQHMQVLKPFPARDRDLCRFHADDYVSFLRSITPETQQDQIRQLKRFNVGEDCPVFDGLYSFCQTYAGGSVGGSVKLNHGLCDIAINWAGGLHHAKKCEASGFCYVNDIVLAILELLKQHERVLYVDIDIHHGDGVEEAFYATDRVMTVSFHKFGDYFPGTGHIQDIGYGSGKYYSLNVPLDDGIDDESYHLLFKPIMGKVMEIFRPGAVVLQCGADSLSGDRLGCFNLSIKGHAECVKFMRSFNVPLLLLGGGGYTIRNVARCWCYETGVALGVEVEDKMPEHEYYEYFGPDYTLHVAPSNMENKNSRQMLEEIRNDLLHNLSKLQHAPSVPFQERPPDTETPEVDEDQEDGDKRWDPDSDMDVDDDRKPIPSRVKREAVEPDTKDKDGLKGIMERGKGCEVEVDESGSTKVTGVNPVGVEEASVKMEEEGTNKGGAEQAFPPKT
# [3] = molecular target: T3, GST alone (negative control) (UniProt P08515 1-218 = GST)
# T3 construct: Negative control in the GST pulldown assays (6 µg per reaction)
# T3 sequence (P08515 whole entry): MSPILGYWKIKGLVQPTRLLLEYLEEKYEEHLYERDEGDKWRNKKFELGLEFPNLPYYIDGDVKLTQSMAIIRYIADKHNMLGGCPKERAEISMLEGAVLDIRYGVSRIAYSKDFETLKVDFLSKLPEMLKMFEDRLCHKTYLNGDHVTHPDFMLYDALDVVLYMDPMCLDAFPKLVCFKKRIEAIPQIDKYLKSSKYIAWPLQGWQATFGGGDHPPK
Binder,binding result [1],binding result [2],binding result [3]
B1,no binding,no binding,
B2,,,no binding
B3,no binding,no binding,
B4,,no binding,
B5,,,no binding
